This passage reports binding signal (RU) and Kd results from patent US20250109207A1.

In general, Kd refers to a measure of binding affinity in units of concentration. Low values mean a tighter complex, high ones a looser complex.

For experiment [1], the target named is Human FcγRIIa (H131) (human) (UniProt P12318). Nature of the experiment: SPR (Biacore); His-tagged FcγR captured on anti-penta-His chip, antibody injected. On the technique in general: In SPR one partner is held on a chip, and binding of the other changes the refractive index at the surface.
Chain of Human FcγRIIa (H131) (human) (P12318 36-218 limits assumed): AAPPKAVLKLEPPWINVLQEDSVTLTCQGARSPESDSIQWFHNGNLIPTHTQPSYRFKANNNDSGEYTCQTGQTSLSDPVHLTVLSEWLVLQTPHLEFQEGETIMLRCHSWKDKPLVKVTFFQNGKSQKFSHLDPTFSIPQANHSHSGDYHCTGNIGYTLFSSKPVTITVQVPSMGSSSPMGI
Experiment [2] has as its target Human FcγRIIIa (V176) (human) (UniProt P08637). The experiment is described as above.
Experiment [3] has as its target Human FcγRIIa (R131) (human) (UniProt P12318). The experiment is described as above.
Experiment [4] addresses Human FcγRIIb (human) (UniProt P31994). Described as above.
Experiment [5] concerns the target Human FcγRIIa (H131) (human) (UniProt P12318). Nature of the experiment: SPR (Biacore); His-tagged FcγR captured, antibody injected; kinetic fit or steady state.
Experiment [6] addresses Human FcγRIIa (R131) (human) (UniProt P12318). The experiment is described as above.
The target of experiment [7] is Human FcγRIIb (human) (UniProt P31994). The experiment is described as above.
Chain of Human FcγRIIb (human) (P31994 46-217 limits assumed): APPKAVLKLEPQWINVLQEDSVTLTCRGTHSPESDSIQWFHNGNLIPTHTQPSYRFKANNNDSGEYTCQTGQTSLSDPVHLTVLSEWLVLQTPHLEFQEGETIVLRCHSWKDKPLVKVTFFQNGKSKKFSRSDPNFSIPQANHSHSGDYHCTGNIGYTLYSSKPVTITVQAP

Chain of Human FcγRIIa (R131) (human) (P12318 36-218 H167R limits assumed): as the sequence (P12318 36-218 limits assumed) above, with H132R counted along it
Chain of Human FcγRIIIa (V176) (human) (P08637 17-208 F176V limits assumed): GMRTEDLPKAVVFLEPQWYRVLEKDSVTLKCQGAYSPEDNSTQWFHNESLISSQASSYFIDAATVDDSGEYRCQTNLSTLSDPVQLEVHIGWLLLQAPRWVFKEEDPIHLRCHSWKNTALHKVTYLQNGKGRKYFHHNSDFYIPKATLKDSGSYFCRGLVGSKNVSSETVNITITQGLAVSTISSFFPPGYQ

B1: mAb3, IgG4s (antibody, part only; not given: variable domains and light chain, not shown: another chain or arm of the molecule)
Fc: ESKYGPPCPPCPAPPVAGPSVFLFPPKPKDTLMISRTPEVTCVVVDVSQEDPEVQFNWYVDGVEVHNAKTKPREEQFNSTYRVVSVLTVLHQDWLNGKEYKCKVSNKGLPSSIEKTISKAKGQPREPQVYTLPPSQEEMTKNQVSLTCLVKGFYPSDIAVEWESNGQPENNYKTTPPVLDSDGSFFLYSRLTVDKSRWQEGNVFSCSVMHEALHNHYTQKSLSLSLGK
B1: the binding signal (RU) in experiment [1] was found to be 419 RU; in experiment [2], 34 RU; in experiment [3], 340 RU; in experiment [4], 226 RU. Moreover, the Kd in experiment [5] stood at 1610 nM; in experiment [6], 1320 nM; in experiment [7] it was 12300 nM.
